Values of other authors, collected in article PMC12805100.
Read-outs that look alike come from different tables or passages of the source.

Experiments:
[1] = target: Calmodulin (Homo sapiens) (UniProt P0DP23)
[2] = target: Calmodulin (Homo sapiens) (UniProt P0DP23); remark: listed apart in the source

Which Kd [1] does the source give for TRPA1 DCTCaMBE (from UniProt O75762) here?
Its Kd is 100 nM.

And the Kd [2]?
Its Kd is 600 nM.
